Data from article PMC4718742.

Target: human CrkII (1–304) (human) (UniProt P46108)
Experiment: NMR titration

Sequence of human CrkII (1–304) (human) (P46108 whole entry): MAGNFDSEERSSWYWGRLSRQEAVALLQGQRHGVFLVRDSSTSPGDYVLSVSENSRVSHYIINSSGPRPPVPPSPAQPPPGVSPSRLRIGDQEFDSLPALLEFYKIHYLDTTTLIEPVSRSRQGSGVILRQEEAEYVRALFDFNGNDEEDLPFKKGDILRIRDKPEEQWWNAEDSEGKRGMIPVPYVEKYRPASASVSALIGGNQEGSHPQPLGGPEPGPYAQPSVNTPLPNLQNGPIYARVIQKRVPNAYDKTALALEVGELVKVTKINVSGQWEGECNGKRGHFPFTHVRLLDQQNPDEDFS

## human CypA (1–165) (from UniProt P62937 1-165) (enzyme; other documents disagree on this pair)
  Kd: 15 µM
